In patent US20230295297A1:

Tests used:
[1] = molecular target: mouse TREM2 on cells (mouse) (UniProt Q99NH8); test: FACS, WT mouse macrophages
[2] = molecular target: TREM2 protein of the 'Percent APOE binding' column of Table 9B; test: TREM2 binding to APOE with antibody
[3] = molecular target: human TREM2 on primary cells (human) (UniProt Q9NZC2); test: FACS, primary hDC; isotype control
[4] = molecular target: recombinant human TREM2-DAP12 fusion protein expressed on cells (human); test: FACS, HEKhT2 cells; isotype control
[5] = molecular target: human TREM2 on primary cells (human) (UniProt Q9NZC2); test: FACS, primary hMAC; isotype control
[6] = molecular target: mouse TREM2 on cells (mouse) (UniProt Q99NH8); test: FACS, BWZmT2 cells; isotype control
[7] = molecular target: TREM2 protein of the 'Percent APOE binding' column of Table 9B; test: TREM2 binding to APOE with isotype control
[8] = molecular target: mouse TREM2 on cells (mouse) (UniProt Q99NH8); test: FACS, WT mouse macrophages; isotype control

mouse TREM2 on cells (mouse), sequence (Q99NH8 19-227 limits assumed): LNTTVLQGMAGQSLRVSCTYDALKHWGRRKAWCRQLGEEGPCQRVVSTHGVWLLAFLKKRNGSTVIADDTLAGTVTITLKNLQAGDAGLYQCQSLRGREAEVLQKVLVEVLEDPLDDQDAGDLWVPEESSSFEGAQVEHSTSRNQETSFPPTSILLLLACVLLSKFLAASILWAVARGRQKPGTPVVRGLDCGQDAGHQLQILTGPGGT
human TREM2 on primary cells (human), sequence (Q9NZC2 19-230): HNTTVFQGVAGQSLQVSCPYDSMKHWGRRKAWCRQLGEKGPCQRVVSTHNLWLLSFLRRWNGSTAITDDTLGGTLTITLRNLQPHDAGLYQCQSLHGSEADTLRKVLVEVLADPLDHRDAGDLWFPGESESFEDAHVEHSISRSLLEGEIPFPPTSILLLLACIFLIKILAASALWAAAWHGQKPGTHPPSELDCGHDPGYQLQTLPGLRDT
recombinant human TREM2-DAP12 fusion protein expressed on cells (human), sequence (chain, as listed by the source limits assumed, form in doubt): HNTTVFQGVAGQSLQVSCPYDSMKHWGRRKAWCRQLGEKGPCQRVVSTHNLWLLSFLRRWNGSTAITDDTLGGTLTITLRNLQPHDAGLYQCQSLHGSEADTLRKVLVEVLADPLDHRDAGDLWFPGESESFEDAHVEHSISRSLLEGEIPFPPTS

| Substance | % Positive WT BMMACS [1] [%] | Percent APOE binding [2] [%] | % Positive hDC [3] [%] | MFI HEKhT2 [4] [MFI] | % Positive hMAC [5] [%] | MFI BWZmT2 [6] [MFI] | Percent APOE binding [7] [%] | % Positive WT BMMACS [8] [%] |
| --- | --- | --- | --- | --- | --- | --- | --- | --- |
| commercial anti-TREM2 antibody (R&D Cat #F7E57291) | 13.1 | 106 | – | – | – | – | – | – |
| mouse IgM isotype control antibody | – | – | 14.9 | 124 | 63.7 | – | – | – |
| mouse IgG2a isotype control antibody | – | – | 7.3 | 40.3 | 7.9 | – | – | – |
| rat IgG1 isotype control antibody | – | – | 8.7 | 544 | 19.6 | – | – | – |
| mouse IgG2b isotype control antibody | – | – | 6.1 | 13 | 5.3 | – | – | – |
| mouse IgG1 isotype control antibody | – | – | 4.9 | 16.3 | 2.7 | 278 | 90.8 | 0.574 |
| rat IgG2a isotype control antibody | – | – | 6.2 | 33 | 10.4 | – | – | – |
| rat IgG2b isotype control antibody | – | – | 0.3 | 35 | 0.9 | – | 102 | – |
